In patent US20240270821A1, “GIP/GLP1/GCG TRI-RECEPTOR AGONISTS AND USES THEREOF” (priority 2023, published 2024):
Positions count from the first letter of the chain named.

B1: Example 279 (peptide)
chain: YXQGTFTSDFSXXLDKKAQXAFIEYLLEXGPSSGAPPPSGX
modifications: synthetic construct; SITE 2: note = 2-Aminoisobutyric Acid; SITE 12: note = L-ornithine; SITE 13: note = alpha-methyl-leucine; SITE 17: note = Lysine is chemically modified through conjugation of the epsilon-amino group of the Lysine side chain with (2-[2-(2-Amino-ethoxy)-ethoxy]-acetyl)-(gamma-Glu)
B2: Example 217 (peptide)
chain: B1 chain with X12K, L27I, P31E, X41E
modifications: Aib, αMeL, acylated Lys (AEEA-γGlu-C18 diacid), C-terminal amide; synthetic construct; SITE 2: note = 2-Aminoisobutyric Acid; SITE 13: note = alpha-methyl-leucine; SITE 17: note = Lysine is chemically modified through conjugation of the epsilon-amino group of the Lysine side chain with (2-[2-(2-Amino-ethoxy)-ethoxy]-acetyl)-(gamma-Glu)-CO-(CH2) 16-CO2H; SITE 20: n
B3: Example 230 (peptide)
chain: B1 chain with X12R, L27I, P31E, X41S
modifications: non-natural residues, AEEA-γGlu-C18 diacid acyl on K, C-terminal amide; synthetic construct; SITE 2: note = 2-Aminoisobutyric Acid; SITE 13: note = alpha-methyl-leucine; SITE 17: note = Lysine is chemically modified through conjugation of the epsilon-amino group of the Lysine side chain with (2-[2-(2-Amino-ethoxy)-ethoxy]-acetyl)-(gamma-Glu)-CO-(CH2) 16-CO2H; SITE 20: n
B4: Example 224 (peptide)
chain: B1 chain with F10X, X12R, L27I, P31E, X41S
modifications: non-natural residues, C-terminal amide, acylated Lys with fatty diacid; synthetic construct; SITE 2: note = 2-Aminoisobutyric Acid; SITE 10: note = 3-(4-Pyridyl)-L-alanine; SITE 13: note = alpha-methyl-leucine; SITE 17: note = Lysine is chemically modified through conjugation of the epsilon-amino group of the Lysine side chain with (2-[2-(2-Amino-ethoxy)-ethoxy]-acetyl)
B5: Example 222 (peptide)
chain: B1 chain with F10X, L27I, P31E, X41E
modifications: non-natural residues; Lys acylated C18 diacid; C-terminal amide; synthetic construct; SITE 2: note = 2-Aminoisobutyric Acid; SITE 10: note = 3-(4-Pyridyl)-L-alanine; SITE 12: note = L-ornithine; SITE 13: note = alpha-methyl-leucine; SITE 17: note = Lysine is chemically modified through conjugation of the epsilon-amino group of the Lysine side chain with (2-[2-(2-
B6: Example 232 (peptide)
chain: B1 chain with X12Q, L27I, P31E, X41S
modifications: non-natural residues (Aib, αMeL, αMe4Pal); lipidated K; C-terminal amide; synthetic construct; SITE 2: note = 2-Aminoisobutyric Acid; SITE 13: note = alpha-methyl-leucine; SITE 17: note = Lysine is chemically modified through conjugation of the epsilon-amino group of the Lysine side chain with (2-[2-(2-Amino-ethoxy)-ethoxy]-acetyl)-(gamma-Glu)-CO-(CH2) 16-CO2H; SITE 20: n
B7: Example 231 (peptide)
chain: B1 chain with X12R, L27I, P31E, X41E
modifications: non-natural residues; lipidated Lys; C-terminal amide; synthetic construct; SITE 2: note = 2-Aminoisobutyric Acid; SITE 13: note = alpha-methyl-leucine; SITE 17: note = Lysine is chemically modified through conjugation of the epsilon-amino group of the Lysine side chain with (2-[2-(2-Amino-ethoxy)-ethoxy]-acetyl)-(gamma-Glu)-CO-(CH2) 16-CO2H; SITE 20: n
B8: Example 227 (peptide)
chain: B1 chain with F10X, X12Q, L27I, P31E, X41E
modifications: Aib, 4Pal, αMeL, αMe4Pal; K acylated AEEA-γGlu-C18 diacid; amide; synthetic construct; SITE 2: note = 2-Aminoisobutyric Acid; SITE 10: note = 3-(4-Pyridyl)-L-alanine; SITE 13: note = alpha-methyl-leucine; SITE 17: note = Lysine is chemically modified through conjugation of the epsilon-amino group of the Lysine side chain with (2-[2-(2-Amino-ethoxy)-ethoxy]-acetyl)
B9: Example 223 (peptide)
chain: B1 chain with F10X, L27I, P31E, X41S
modifications: Aib, 4Pal, Orn, αMeL, αMe4Pal, acylated Lys, amide; synthetic construct; SITE 2: note = 2-Aminoisobutyric Acid; SITE 10: note = 3-(4-Pyridyl)-L-alanine; SITE 12: note = L-ornithine; SITE 13: note = alpha-methyl-leucine; SITE 17: note = Lysine is chemically modified through conjugation of the epsilon-amino group of the Lysine side chain with (2-[2-(2-
B10: Example 226 (peptide)
chain: B1 chain with F10X, X12Q, L27I, P31E, X41S
modifications: non-natural residues, lipidated Lys, C-terminal amide; synthetic construct; SITE 2: note = 2-Aminoisobutyric Acid; SITE 10: note = 3-(4-Pyridyl)-L-alanine; SITE 13: note = alpha-methyl-leucine; SITE 17: note = Lysine is chemically modified through conjugation of the epsilon-amino group of the Lysine side chain with (2-[2-(2-Amino-ethoxy)-ethoxy]-acetyl)
B11: Example 233 (peptide)
chain: B1 chain with X12Q, L27I, P31E, X41E
modifications: non-natural residues; AEEA-γGlu-C18 diacid on Lys; C-terminal amide; synthetic construct; SITE 2: note = 2-Aminoisobutyric Acid; SITE 13: note = alpha-methyl-leucine; SITE 17: note = Lysine is chemically modified through conjugation of the epsilon-amino group of the Lysine side chain with (2-[2-(2-Amino-ethoxy)-ethoxy]-acetyl)-(gamma-Glu)-CO-(CH2) 16-CO2H; SITE 20: n
B12: Example 225 (peptide)
chain: B1 chain with F10X, X12R, L27I, P31E, X41E
modifications: non-natural residues, AEEA-γGlu-C18 diacid acyl on K, C-terminal amide; synthetic construct; SITE 2: note = 2-Aminoisobutyric Acid; SITE 10: note = 3-(4-Pyridyl)-L-alanine; SITE 13: note = alpha-methyl-leucine; SITE 17: note = Lysine is chemically modified through conjugation of the epsilon-amino group of the Lysine side chain with (2-[2-(2-Amino-ethoxy)-ethoxy]-acetyl)

target: hGLP-1R (Homo sapiens, UniProt P43220); experiment: cell-based or functional assay
Sequence (P43220 24-463): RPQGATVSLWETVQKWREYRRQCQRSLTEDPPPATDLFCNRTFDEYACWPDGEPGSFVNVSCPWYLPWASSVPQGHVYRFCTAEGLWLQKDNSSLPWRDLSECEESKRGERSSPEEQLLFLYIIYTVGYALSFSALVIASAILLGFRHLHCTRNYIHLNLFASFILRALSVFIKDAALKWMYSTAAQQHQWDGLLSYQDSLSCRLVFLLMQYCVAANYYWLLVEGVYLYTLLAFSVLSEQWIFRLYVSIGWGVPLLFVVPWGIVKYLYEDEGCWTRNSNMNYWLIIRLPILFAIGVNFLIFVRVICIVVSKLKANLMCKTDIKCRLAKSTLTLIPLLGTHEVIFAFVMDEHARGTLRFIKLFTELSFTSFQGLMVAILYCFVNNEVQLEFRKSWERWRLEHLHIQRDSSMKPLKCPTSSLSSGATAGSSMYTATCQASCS

| Binder | Relative cAMP EC50 [nM] | cAMP Rel EC50 (in the presence of 1% HSA) [nM] | cAMP Rel EC50, nM (1% HSA) [nM] |
| --- | --- | --- | --- |
| B1 | 5.77 | 367 |  |
| B2 | 0.667 |  | 130 |
| B3 | 0.937 |  |  |
| B4 | 1.89 |  | 333 |
| B5 | 3.64 |  | 753 |
| B6 | 0.819 |  | 226 |
| B7 | 1.3 |  | 223 |
| B8 | 2.34 |  | 418 |
| B9 | 2.83 |  | 627 |
| B10 | 1.97 |  | 354 |
| B11 | 0.874 |  | 223 |
| B12 | 2.44 |  | 438 |

target: T1, human GIP receptor (human) (UniProt P48546); experiment: cell-based or functional assay
T1 sequence (looked up): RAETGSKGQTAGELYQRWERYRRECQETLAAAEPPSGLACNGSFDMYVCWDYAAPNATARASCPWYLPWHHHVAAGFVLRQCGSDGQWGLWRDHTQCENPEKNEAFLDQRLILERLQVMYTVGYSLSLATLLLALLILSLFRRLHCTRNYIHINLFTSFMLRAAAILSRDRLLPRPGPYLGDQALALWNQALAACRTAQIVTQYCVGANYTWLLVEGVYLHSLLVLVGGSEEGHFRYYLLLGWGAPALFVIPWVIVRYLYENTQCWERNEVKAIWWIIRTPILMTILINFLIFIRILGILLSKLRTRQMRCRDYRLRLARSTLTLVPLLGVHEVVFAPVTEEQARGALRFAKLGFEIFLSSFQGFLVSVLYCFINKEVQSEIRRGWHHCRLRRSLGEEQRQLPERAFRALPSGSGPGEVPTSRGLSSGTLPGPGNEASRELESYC

| Binder | Relative cAMP EC50 [nM] | cAMP Rel EC50 (in the presence of 1% HSA) [nM] | cAMP Rel EC50, nM (1% HSA) [nM] |
| --- | --- | --- | --- |
| B1 | 0.105 | 11.6 |  |
| B2 | 0.0897 |  | 15 |
| B3 | 0.0909 |  |  |
| B4 | 0.114 |  | 21.5 |
| B5 | 0.228 |  | 52.5 |
| B6 | 0.102 |  | 24.6 |
| B7 | 0.119 |  | 27.4 |
| B8 | 0.17 |  | 39.7 |
| B9 | 0.215 |  | 37.2 |
| B10 | 0.127 |  | 32.2 |
| B11 | 0.0884 |  | 28.1 |
| B12 | 0.213 |  | 40.2 |

target: human GLP-1R (SNAP-GLP-1R expressed in HEK293 cells) (human) (UniProt P43220); experiment: cell-based or functional assay
Sequence (P43220 24-463): as the sequence (P43220 24-463) above

| Binder | GLP1R Internalization EC50 [nM] | Internalization % TOP [%] |
| --- | --- | --- |
| B1 | 115 | 37.5 |
| B2 | 27.6 | 58.2 |
| B3 | 34.4 | 31.2 |
| B4 | 32.2 | 61.9 |
| B5 | 34.6 | 52.4 |
| B6 | 44.7 | 45.5 |
| B7 | 36.1 | 27.7 |
| B8 | 114 | 59.4 |
| B9 | 45.8 | 59.3 |
| B10 | 29.1 | 59.3 |
| B11 | 24.8 | 41.8 |
| B12 | 26 | 56.7 |

target: human glucagon receptor (human) (UniProt P47871); experiment: cell-based or functional assay
Sequence (P47871 26-477): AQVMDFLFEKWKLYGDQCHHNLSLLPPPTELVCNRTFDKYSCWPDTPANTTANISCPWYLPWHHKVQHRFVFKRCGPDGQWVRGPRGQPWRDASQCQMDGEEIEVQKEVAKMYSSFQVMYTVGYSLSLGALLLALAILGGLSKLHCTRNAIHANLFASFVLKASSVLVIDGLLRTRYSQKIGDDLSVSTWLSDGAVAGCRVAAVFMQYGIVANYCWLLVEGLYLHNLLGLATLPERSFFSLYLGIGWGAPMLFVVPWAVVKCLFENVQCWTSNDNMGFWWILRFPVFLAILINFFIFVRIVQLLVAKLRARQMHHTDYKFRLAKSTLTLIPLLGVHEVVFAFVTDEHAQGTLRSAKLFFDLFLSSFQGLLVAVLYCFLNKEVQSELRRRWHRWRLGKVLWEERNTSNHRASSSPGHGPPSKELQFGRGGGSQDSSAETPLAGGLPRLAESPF

| Binder | Relative cAMP EC50 [nM] | cAMP Rel EC50 (in the presence of 1% HSA) [nM] | cAMP Rel EC50, nM (1% HSA) [nM] |
| --- | --- | --- | --- |
| B1 | 5.06 | 427 |  |
| B2 | 5.11 |  | 1570 |
| B3 | 1.61 |  |  |
| B4 | 1.91 |  | 452 |
| B5 | 2.33 |  | 440 |
| B6 | 2.42 |  | 482 |
| B7 | 2.12 |  | 443 |
| B8 | 4.22 |  | 937 |
| B9 | 1.57 |  | 373 |
| B10 | 3.08 |  | 763 |
| B11 | 2.25 |  | 453 |
| B12 | 2.36 |  | 561 |
